The chains are these.
B1: OutB HR domain (residues P112 to K220), purified (domain or fragment)
chain: PAKLVTGWQTAKPGELPYIAFSAHVYTSAPDKRSVTLNGERYREGDSPYQGLVIEQIEQDMVIFSFNGEPFILDSLQDWPGGKPGDDAAQGNEQEPTSKPEQTVRTTKK
notes: OutB (GspB) of Dickeya dadantii, conserved periplasmic domain, residues 112 to 220; uniformly 15N-labelled where it was the observed protein; the NMR methods speak of residues 112 to 193, the results and legends of 112 to 220; also called OutB^112–220; 15N-labeled OutB HR domain; source: E. coli BL21(DE3), purified (glutathione Sepharose, on-column PreScission cleavage, Superdex S200); not shown: …

Assay [1] addresses OutD N0 domain (residues 1 to 85 of signal peptide-less OutD), purified (Dickeya dadantii) (UniProt Q01565). Kind of assay: NMR titration; competition: 15N OutB HR 40 μM, unlabelled OutD N0 60 μM, unlabelled OutC HR 120, 240 and 360 μM; HSQC chemical shifts.
Assay [2] addresses T1, OutD N0-N1-N2 domains (residues 1 to 258 of signal peptide-less OutD), purified (Dickeya dadantii, UniProt Q01565 28-285).
T1 construct: secretin OutD (GspD) of Dickeya dadantii, N0, N1 and N2 domains, residues A1 to V258; numbers count on: the mature protein
T1 sequence: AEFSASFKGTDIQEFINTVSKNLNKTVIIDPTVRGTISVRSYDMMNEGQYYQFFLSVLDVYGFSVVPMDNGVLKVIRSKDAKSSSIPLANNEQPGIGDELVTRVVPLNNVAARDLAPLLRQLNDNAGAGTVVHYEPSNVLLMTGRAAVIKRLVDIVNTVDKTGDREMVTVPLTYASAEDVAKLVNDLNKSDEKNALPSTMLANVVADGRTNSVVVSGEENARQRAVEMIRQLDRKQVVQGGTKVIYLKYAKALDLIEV
Kind of assay: NMR titration; 1H-15N HSQC of a 15N-labelled domain alone or with the unlabelled partner; each protein 200 μM; 15°C, 20 mM Tris-HCl pH 7.0, 10% D2O. The following applies: both partners purified.

The target of assay [3] is B1. Kind of assay: NMR titration; competition: 15N OutB HR 40 μM, unlabelled OutD N0 60 μM, unlabelled OutC HR 120, 240 and 360 μM; HSQC chemical shifts. The following applies: both partners purified.

For “OutC HR domain (residues A78 to S158) (domain or fragment)”, the Kd in assay [1] was 1 mM. With B1, in assay [2], the binding result was “binds”.

B2: OutD N0 domain (residues 1 to 85 of signal peptide-less OutD), purified (domain or fragment)
chain: AEFSASFKGTDIQEFINTVSKNLNKTVIIDPTVRGTISVRSYDMMNEGQYYQFFLSVLDVYGFSVVPMDNGVLKVIRSKDAKSSS
notes: secretin OutD (GspD) of Dickeya dadantii, N0 domain, residues A1 to S85; numbers count on: the mature protein; 15N-labelled in the reciprocal experiment
On to B2, for which the Kd in assay [3] was ~10 µM.

(Values after publication PMC9239104, “Scaffolding Protein GspB/OutB Facilitates Assembly of the Dickeya dadantii Type 2 Secretion System by Anchoring the Outer Membrane Secretin Pore to the Inner Membrane and to the Peptidoglycan Cell Wall” (mBio, 2022).)
